From paper PMC4159622

How the values were obtained:
FBXO11 [1] = target: FBXO11 (UniProt Q86XK2); experiment: co-IP of alanine scanning mutants; details: reference: wild type; sites S11
FBXO11 [2] = target: FBXO11 (UniProt Q86XK2); experiment: co-IP with anti-HA; details: reference: wild type; sites S11

Substance	binding against the reference (FBXO11 [1])	binding against the reference (FBXO11 [2])
SNAIL (from UniProt O95863) S11A	lost	–
SNAIL (from UniProt O95863) S11V	–	lost
